Measurements: the DeepSol protein solubility set

Assay: soluble on expression in E. coli; label from the status in PepcDB or PDB records

Sequence	soluble on expression in E. coli
STKFPTLKRLFGEAQAAWLVKESEQAVLEIDAFCKQHHIDAQLSLKGVYYTATNHVQAGSMQPVVDELSRLGVNSWRRCKEDELHANTGSPRHLEGFHSSVAASVQPALLARGLRRVALEMGIEIFENTPMTKLDFGQPATVSTPDAQIKAKQVVLALNAWMVEHFTQFKNSIVVVSSDMVITKPLGESLRKTGWQAGTSVLDSRIFVHYYRDTPDGRLMLGKGGNQFSFNNQVDVMFNKPTRYQNLLRKSFDKLFPSLKEAEFEYSWTGGSDRSTSGFPFFGKLNEQRNVFYGFGYSGNGVAQTRMGGKILSSMVLGLDNEWTRSGLAKGPLGHFPPEPFRWIGAMTVRNAVRRKEEAEDCGQKPFIWDKWLAKLAGPAGKADKLD	not soluble
MKIMIFICGEGLGHTSRCLALGKELLNAGHEIKFGAYGYSKELVEKTGYTAQEIPSEIKLVGKAGSLDLTGSIEATLKSAQLLGGPKLLKLLREFKPDVVVSDSYYLGTLAAMVLKLPVYLIINQSNMEEFFKNRGVPVRIIGKLTKKFYKEVFEKTDKILEHHHHHH	not soluble
ETIASELKAIGKELEDQKKEENIQIAKIAKEKFDFLSTFKVGPYDLIDEDIQMKIKRTLYSSLDYKKENIEKLKEILEILKKNSEHYNIIGRLIYHISWGIQFQIEQNLELIQNGVENLSQEESKSLLMQIKSNLEIKQRLKKTLNETLKVYNQNTQDNEKILAEHFNKYYKDFDTLKPAF	soluble
RNMDASPLAKRNSLQLFTDGQEKFQALFEDIRAAKETVHVEYYAFFNDTIGNQFLDVLIEKLHEGVEVYLIYDPWGSPGANKKFFARYVDAGGKVAPFITSRDMIRKTRLNYHLHRKIVVIDGKIGWTGGFNVGDQYLNVTEKFGYWRDTHIRLVGTAVFSLQEIFIMDWNASVKYPEERMTYHEKYFKLPEDHEVEHLSLQVVSDGPDSEEEILKSG	not soluble
MLRRKPTRLELKLDDTEEFESVKKELESRKKQRDEVDVVGVATSSEMSGAAGGTADGKTREQMIHERIGYKPHPKPNTLPSLFGNLQF	soluble
MGSDKIHHHHHHMGSQAIVTGASGFIGSSVARMLAHKGWTVHGIGSSHLAMEAQEQIGIKHWVQQDLTLASLQGLADKTGDPDIIIHCAGGSSVQASISNPYEDFARTANATLNVLEFMRRYSPASALVYPSSAAVYGQTSSLPIAESSTPKPFSPYGHHKRIAEILCESYSLQWQLSVSIVRLFSVYGAGLKKQLLWDACQKAEQGAYSFFGSGAEIRDWLHVEDASNLLILAAEYASPECVIINGGSGVGTSINEILKLVGSHFALVSAPTFSGKAREGDPDSYVADITKAQALGFIPSFSLSDGIRQYVEWFKKECML	not soluble
MRKSRLSRYKQNKLIELFVAGVTARTATEPDSIVYTDCYRRYDVLDAGEFSHFRINHSTHFAERQNHINGIGNFWNRAKRHLRKFDGIPKEHFEPYLKECERRFNNSEIKVLVPFLEHHHHHH	not soluble
MEFSIKQSPLSVQSVVKCIKMKQAPEILGSANGKTPSCEVNRECSVFLSKAQLSSSLQEGVMQKFNGHDALPFIPADKLKDLTSRVFNGEPGAHDAKLRFESQEMKGIGTPPNTTPIKNGSPEIKLKITKTYMNGKPLFESSICGDSAADVSQSEENGQKPENKARRNRKRSIKYDSLLEQGLVEAALVSKISSPSDKKIPAKKESCPNTGRDKDHLLKYNVGDLVWSKVSGYPWWPCMVSADPLLHSYTKLKGQKKSARQYHVQFFGDAPERAWIFEKSLVAFEGEGQFEKLCQESAKQAPTKAEKIKLLKPISGKLRAQWEMGIVQAEEAASMSVEERKAKFTFLYVGDQLHLNPQVAKEAGIAAESLGEMAESSGVSEEAAENPKSVREECIPMKRRRRAKLCSSAETLESHPDIGKSTPQKTAEADPRRGVGSPPGRKKTTVSMPRSRKGDAASQFLVFCQKHRDEVVAEHPDASGEEIEELLRSQWSLLSEKQRARYNTKFALVAPVQAEEDSGNVNGKKRNHTKRIQDPTEDAEAEDTPRKRLRTDKHSLRKRDTITDKTARTSSYKAMEAASSLKSQAATKNLSDACKPLKKRNRASTAASSALGFSKSSSPSASLTENELLWEPTPVKLDLNPAALYCT	soluble
MDTQQIDVMVADASHEVYVDTILETIRNAAKVRGTGIAERTHEYVATKMKEGKAIIALCGDVFAGFTYIESWGNKQYVATSGLIVHPDFRGLGLAKRIKQASFQLARLRWPRAKIFSLTSGAAVMKMNTELGYVPVT	soluble
MGSDKIHHHHHHMNILFINSIGRNKFGGGEKWMVNAAKGLTDRGHNVVLASKRNSRLLDYAAGSGVRTEVMEIRGDFSPLATLKIAAWMKRHQTDILICNLNKDVRVAGLAARLVGRPVVLARHGMLLCSKKWKHKLSLTRLTDGIVTNSRTIREAYAGYGWFSENFVKVIYNGLTIPAEVTAFDFASRYPGKKIIYSAGRLSKQKGFEYLIDAAAMLKRKRDDLLFAISGEGKLEIELKNRVAALGLKGSFVFLGFTPDIYPFLKGCDLFVLASLFEGMPNVVMEAMAMQKPVIATDVNGARELMGASPESLVCDTGLIIPPKNPAAIAEAIEQIIDNPALLEAYGKAGHQRVETHFTVPIMIDNLEKHLQSKLAEKAGRC	not soluble
MAHSEEQAAVPCAFIRQNSGNSISLDFEPDTEYQFVEQLEERYKCAFCHSVLHNPHQTGCGHRFCQQCIRSLRELNSVPICPVDKEVIKPQEVFKDNCCKREVLNLHVYCKNAPGCNARIILGRFQDHLQHCSFQAVPCPNESCREAMLRKDVKEHLSAYCRFREEKCLYCKRDIVVTNLQDHEENSCPAYPVSCPNRCVQTIPRARVNEHLTVCPEAEQDCPFKHYGCTVKGKRGNLLEHERAALQDHMLLVLEKNYQLEQRISDLYQSLEQKESKIQQLAETVKKFEKELKQFTQMFGRNGTFLSNVQALTSHTDKSAWLEAQVRQLLQIVNQQPSRLDLRSLVDAVDSVKQRITQLEASDQRLVLLEGETSKHDAHINIHKAQLNKNEERFKQLEGACYSGKLIWKVTDYRVKKREAVEGHTVSVFSQPFYTSRCGYRLCARAYLNGDGSGKGTHLSLYFVVMRGEFDSLLQWPFRQRVTLMLLDQSGKKNHIVETFKADPNSSSFKRPDGEMNIASGCPRFVSHSTLENSKNTYIKDDTLFLKVAVDLTDLEDL	soluble
MSLGFHEVRFPTNLSFGSIGGPERRTEIVTLVNGFEERNSLWAHSRRRYDAGVALRSLDDIQALLAFFEARRGQLYGFRWKDWADYRSCPATASPGPKDQPLGIGDGISREFALVKTYRSGSEQYVRPVAKPVAGSVKVAVAGAVLVEGAGFSVDETRGLVTLAAAPAEGAAVTAGFEFDVPVRFDTDRIQISMASFQAGEVPSVPVMEVRVEGHHHHHH	soluble
MGSDKIHHHHHHMNQEKIQELVSRSQQDDKRAFALLVSEFQPLVFRLAFRLLCDEEEARDITQETFVKVWLSLKTYNQENRLSTWLYKITCNTCYDRLRSLRHSPLDNESAFSDSVNIPSDDHIEISLSNKQLKELILRYTNELPPQQKLVFTLRDVEELEVAEVQIITGLSPEKIKSTLYLARKNIRNKMNQIDPDL	not soluble
MEEAVSPLGLDVLEVHFARGELLVRLERKDERPITVADLEEASRHIEAALDREDPIPGSYRLLVESPGPKRPLFTRRHFERFQGLKAKVPGPEGFTGRILRVEGEEVVFQVGDEERRLRIGTFRANLAEWPEEPR	soluble
MGSDKIHHHHHHMDIKQIRYFIAIVENHFNLSQAAELLYVSQPTLSMMINDFEKRENVKLFKRKRGRIIGLTYLGDNYYKDAQKVLSLYDDMFLKLHDHSKGLKGSINIGIPPLILSVVFSEVMPKLILENPGIQFNVKEIGAYQLKNELLVGNVDVAVLLSPTGIADNLVETYEIQRSELSVCLSPRHRLASKKVIQWEDLTDEQLALFDPSFMVHHLVLEACERHQVRPNIILTSSSWDFMLNSTKINHNVLTICPKPITELYQLKDIKCIPMERPISWRVVLTRLRKKSYSEIEAYIMDDLLQSFFK	not soluble
MPMRYWLMKSEPDETSIDHLAAEPARLFEWTGVRNYQARNFMRDDMQPGDLLLFWHSSCPEPGIAGIAEVAAAAHADSSQFDPASPYHDPKSDPADPRWLCVDVRFVRKTRLLPPAELRRHPPLEGMTVLKRGNRLSITPVTAEEWAYLMDLLDIRRAGLEHHHHHH	soluble
MGKTSKYVTAAALCSTIVMGGLHASSVSYAATNPTVATLQSDAKLLNDFKKELKKQIDNREENITITYKTKDRNARNIMDELYGEFNKIVDADEYVKYNIASTRYSIKGLPGNYTFTLQVKYRESKEQTQYVKSQAKAIIGSIVKPGMDEHEKVKAIHDYVVKHVSYDTSYQAYTAYEALANRSAVCQGYTLLTYELLKEAGIQNRIVTGTGNGQAHSWNLVNIENKWYHLDTTFDDPVPDKAGRVTYSYFNMSDEQLSKDHDWDRSKYPAATTSYFNELTNKIKAGSSKTATYEQMLKETNLKYLSAQYGADNYSEFKEKLQQQFASKPEKVEVRYKQSMDGTMQDIKKVLNEINWPKGAKRVSYQVAPYSAMADYSLATITFTY	not soluble
MSLLDIIFPPNNNDDDFYGQHFSLIDSIIVKVAQDSNLSQSLRVYQYLYSWRLFGCMVAVVNNNKTLELGDKRGAIEALYEFITRFRIENPTGDVERKVKLKILEIYMIILNLLKSFENNQDQWFLKTNSYKETTTTRRRSIVSLNDLKLEYLEWLKNLDEDVSMFTEGHHHHHH	not soluble
MSLAQLPSELLSLQLPLRIRIGDAQAFDLGPDPQVTMVIRDPTLLTEITHPSLDALGKAYVEKRLDIEGPISQVIGIGDALSEALGDPDGEASPVRESHDKATDAEAIHYHYDLSNDFYRLWLDPEMVYSCAYFETGREDLATAQLAKLRHLCRKLRLQPGEKLLDVGCGWGGLARLAAREFGVEVTGITLSKEQLALGQERVRAEGLEDRVTLKLLDYRDLPRDGRFDKVVSVGMFEHVGHANLGLYFQQLYDAVRPGGLVMNHGITSLYTDGRPVGKGAGDFIDRYVFPHGELPHLSLAVARMSEAGLEVVDVESLRLHYARTLDFWSANLEAKLKEAARLVPEETLRIWRLYLAGCAYGFKRGWINLHQILANRPHEDGSHELPWSRRDLYAEGHHHHHH	soluble
TKDLPIHACSYCGIHDPACVVYCNTSKKWFCNGRGNTSGSHIVNHLVRAKCKEVTLHKDGPLGETVLECYNCGCRNVFLLGFIPAKADSVVVLLCRQPCASQSSLKDINWDSSQWQPLIQDRCFLSWLVKIPSEQEQLRARQITAQQINKLEELWKENPSATLEDLEKPGVDEEPQHVLLRYEDAYQYQNIFGPLVKLEADYDKKLKESQTQDNITVRWDLGLNKKRIAYFTLPKTDSDMRLMQGDEICLRYKGDLAPLWKGIGHVIKVPDNYGDEIAIELRSSVGAPVEVTHNFQVDFVWKSTSFDRMQSALKTFAVDETSVSGYIYHKLLGHEVEDVIIKCQLPKRFTAQGLPDLNHSQVYAVKTVLQRPLSLIQGPPGTGKTVTSATIVYHLARQGNGPVLVCAPSNIAVDQLTEKIHQTGLKVVRLCAKSREAIDSPVSFLALHNQIRNMDSMPELQKLQQLKDETGELSSADEKRYRALKRTAERELLMNADVICCTCVGAGDPRLAKMQFRSILIDESTQATEPECMVPVVLGAKQLILVGDHCQLGPVVMCKKAAKAGLSQSLFERLVVLGIRPIRLQVQYRMHPALSAFPSNIFYEGSLQNGVTAADRVKKGFDFQWPQPDKPMFFYVTQGQEEIASSGTSYLNRTEAANVEKITTKLLKAGAKPDQIGIITPYEGQRSYLVQYMQFSGSLHTKLYQEVEIASVDAFQGREKDFIILSCVRANEHQGIGFLNDPRRLNVALTRARYGVIIVGNPKALSKQPLWNHLLNYYKEQKVLVEGPLNNLRESLMQFS	soluble
MVDNTSLSFEQIADFCGLHPLEVRGIADGEVARDIRGADPIGNGQLNREELDRAQANPDYRMKALVSRHAELLKPAKKAPRYTPVSRRQDRPDAIAWFLRHHPEVTDAQISKILGTTKATIEQVRARTHWNAANIKPVDPVTLGLVGQLELDALVKKAAEKKAKDDLKKGIVPEDPTLRPASEAGQFEPEVEEEEEDFRAPRGDLKAEDVFGKSTGYVDEEDEDLEHHHHHH	soluble
